Measured values reported in patent US20200397816A1, “METHODS TO TREAT INFLAMMATORY AND SMOOTH MUSCLE CELL PROLIFERATION DISORDERS” (THE TRUSTEES OF INDIANA UNIVERSITY, priority 2019, published 2020).
Entries after “also recorded” stand apart in the source; their conditions may differ.

What was measured:
[1] = tested on: SphK1; assay: SphK1 transcripts qRT-PCR in RAW 264.7 macrophages; type: cell-based, mouse
Method: (§1) RAW 264.7 (ATCC) mouse macrophages and Human Embryonic Kidney (HEK) 293T cells were cultured in DMEM media with 10% fetal bovine serum […] and glutamine HEPES buffer and beta-mercaptoethanol were added to the growth medium used for RAW 264.7 macrophages. […]
(§2) Total RNA was extracted with TriZol using standard RNA extraction protocol and reverse transcribed with SuperScript III Reverse Transcriptase (Thermo Fischer Scientific). SphK1, Tnf, Il6, EGR1, Gapdh, Hprt1 transcripts were quantified using PrimePCR SYBR Green assays from BioRad. […]
(§3) Total RNA was extracted with TriZol using standard RNA extraction protocol and reverse transcribed with SuperScript III Reverse Transcriptase (Thermo Fisher Scientific). SPHK1, Tnf, Il6, EGR1, Gapdh, Hprt1 transcripts were quantified using PrimePCR SYBR Green assays from BioRad.

[2] = tested on: pERK1/2; assay: pERK1/2 western blot time course in RAW 264.7 macrophages; type: cell-based, mouse
Method: (§4) RAW 264.7 (ATCC) mouse macrophages and Human Embryonic Kidney (HEK) 293T cells were cultured in DMEM media with 10% fetal bovine serum […] and glutamine HEPES buffer and beta-mercaptoethanol were added to the growth medium used for RAW 264.7 macrophages. Primary human pulmonary artery smooth muscle cells (hPASMC) purchased from Lonza (Walkersville, Md.) were cultured in complete growth medium containing smooth muscle growth media-2 (SmGM-2) with 10% FBS and growth factors provided as a kit by the supplier (Lonza, (Walkersville, Md.). THP-1 human monocyte cells were cultured in RPMI 1640 with 10% FBS and glutamine Cells were cultured in a humidified atmosphere with 5% CO2 at 370 C. For all studies passages 5-14 were used for RAW 264.7 and passages 5-10 were used for hPASMCs. For treatment studies, subconfluent cells plated in multi-well plates were serum starved and if required, pretreated for with inhibitors before stimulating with 2 μg/mL recombinant EMAP II.
(§5) After appropriate treatments, protein lysates were prepared by using RIPA buffer supplemented with phosphatase and protease inhibitors (Thermo Fischer Scientific). Alpha-tubulin was used as a loading control. For nuclear and cytoplasmic fractionation, NE-PER kit from Thermo Fischer Scientific was used. Western blots were performed according to standard methods and quantified using densitometry using Image Studio Lite software from LI-COR Biosciences.
(§6) RAW 264.7 (ATCC) mouse macrophages and HEK-293T (ATCC) cells were cultured in DMEM media with 10% (v/v) fetal bovine serum (FBS) and 2 mM glutamine HEPES buffer and beta-mercaptoethanol were added to the growth medium used for RAW 264.7 macrophages. […]
(§7) After appropriate treatments, protein lysates were prepared by using RIPA buffer supplemented with phosphatase and protease inhibitors (Thermo Fisher Scientific). […] Western blots were performed according to standard methods and quantified using densitometry using Image Studio Lite software from LI-COR Biosciences.

[3] = tested on: Tnf; assay: Tnf transcripts qRT-PCR in RAW 264.7 macrophages; type: cell-based, mouse; details: EMAP II time course
Method: as §1, §2, §3

[4] = tested on: hPASMC; assay: WST-1 cell proliferation assay in hPASMC; type: cell-based, human; details: SMCs; EMAP II 2 μg/mL 48 hours
Method: (§8) Cell proliferation of hPASMCs was assessed using WST-1 cell proliferation reagent (Roche Diagnostic Corporation, IN) in a 96-well plate. Human PASMCs were seeded at 4200 cells/well density in 100 μl complete medium and serum starved for overnight. Cells were stimulated for 48 hours with 2 μg/mL EMAP II following the pretreatment with inhibitors. WST-1 reagent (10 μL) was added into each well and incubated for 90 minutes in a humidified atmosphere with 5% CO2 at 370 C. Absorbance was measured at 450 nm using microplate reader. Blank control well was with medium and WST-1 reagent without cultured cells. All samples were in duplicates. Cell proliferation was determined by subtracting the background reading from average of duplicate of each sample.
as §8, with “37°” for “370”, “Blank control well was with medium and WST-1 reagent without cultured cells. All samples were in duplicates.” left out

[5] = tested on: Cyclin D1; assay: Cyclin D1 western blot in hPASMC; type: cell-based, human; details: SMCs; 48 hours of EMAP II stimulation
Method: as §1
as §7, with “Fischer” for “Fisher”, “Biosciences. […]” for “Biosciences.”
as §7

[6] = tested on: S1P; assay: S1P, sphingosine and ceramides by HPLC/MS/MS in hPASMC; type: cell-based, human
Method: as §4
Collected cells were rinsed with PBS, pelleted and frozen at minus 80° Celsius. Sphingolipids extraction and analysis is carried out at the Medical University of South Carolina (MUSC) core facility using eight-point calibration curves generated for each target analyte by High Performance Liquid Chromatography-Tandem Mass Spectrometry (HPLC/MS/MS) system operating in positive multiple reaction-monitoring (MRM) mode engaging a gradient elution. Sphingolipids are normalized to inorganic phosphate levels determined from the Bligh & Dyer lipid extraction method. Biological samples were from different passage numbers and on different days.
as §6
(§9) Collected cells were rinsed with PBS, pelleted. […] Sphingolipids were normalized to inorganic phosphate levels in PASMC which was determined from the Bligh & Dyer lipid extraction method. […]

[7] = tested on: pSTAT3; assay: pSTAT3 levels in SMCs (data not shown); type: cell-based, human
[8] = tested on: S1P; assay: S1P, sphingosine and ceramides by HPLC/MS/MS in RAW 264.7 macrophages; type: cell-based, mouse; details: EMAP II 0-24 hours
Method: as §4
Collected cells were rinsed with PBS, pelleted and frozen at minus 80° Celsius. […] Sphingolipids are normalized to inorganic phosphate levels determined from the Bligh & Dyer lipid extraction method. […]
as §9

[9] = tested on: EGR1; assay: EGR1 protein western blot (whole cell lysates, nuclear fractions) in RAW 264.7 macrophages; type: cell-based, mouse; details: macrophages
Method: as §4, §5
RAW 264.7 (ATCC) mouse macrophages and HEK-293T (ATCC) cells were cultured in DMEM media with 10% (v/v) fetal bovine serum (FBS) and 2 mM glutamine HEPES buffer and beta-mercaptoethanol were added to the growth medium used for RAW 264.7 macrophages. Primary human pulmonary artery smooth muscle cells (hPASMC) purchased from Lonza (Walkersville, Md.) were cultured in complete growth medium containing smooth muscle growth media-2 (SmGM-2) with 10% FBS and growth factors provided as a kit by the supplier (Lonza, (Walkersville, Md.). THP-1 human monocyte cells were cultured in RPMI 1640 with 10% FBS and glutamine Cells were cultured in a humidified atmosphere with 5% CO2 at 37° C. For all studies passages 5-14 were used for RAW 264.7 and passages 5-10 were used for hPASMCs. For treatment studies, subconfluent cells plated in multi-well plates were serum starved and if required, pretreated with inhibitors before stimulation with 2 μg/mL recombinant EMAP II.
as §7, with “Scientific). Alpha-tubulin was used as a loading control.” for “Scientific).”

B1: EMAP II: 6x-His tagged recombinant EMAP II, cleaved C-terminal peptide of AIMP1 (SEQ ID NO: 2), pro-inflammatory cytokine (protein)
chain: IAGSADSKPIDVSRLDLRIGCIITARKHPDADSLYVEEVDVGEIAPRTVVSGLVNHVPLEQMQNRMVILLCNLKPAKMRGVLSQAMVMCASSPEKIEILAPPNGSVPGDRITFDAFPGEPDKELNPKKKIWEQIQPDLHTNDECVATYKGVPFEVKGKGVCRAQTMSNSGIK
- induction of SphK1 transcription compared to control ([1]; EMAP II treated macrophages): about 4 times
- time of peak SphK1 transcription after EMAP II stimulation ([1]; macrophages): 3 h
- earliest time of pERK1/2 activation [2]: 5 minutes
- time of pERK1/2 peak [2]: 1 hour
- ERK1/2 phosphorylation (pERK1/2 normalized to ERK1/2) ([2]; 24-hour time course): induced ERK1/2 phosphorylation; also recorded: bi-modal activation; also recorded: bimodal activation
- Tnf transcription level [3]: increased
- cell proliferation (WST1) [4]: promotes cell proliferation
- cyclin D1 expression [5]: modulates cyclin D1; also recorded: marked increase
- extracellular S1P compared to control ([6]; SMCs growth media, 1 hour of EMAP II): elevation; also recorded: elevated
- cellular sphingosine and ceramide levels ([6]; SMCs, EMAP II 0-24 hours): depreciation throughout the time; also recorded: decreasing levels over time
- cellular S1P levels (HPLC/MS/MS) ([6]; SMCs, EMAP II 0-24 hours, normalized against inorganic phosphates): bi-modal elevation
- pSTAT3 levels / STAT3 activation [7]: does not impact; also recorded: no STAT3 activation
- cellular sphingosine and ceramide levels [8]: bi-modal depreciation; also recorded: decreasing levels over time
- cellular S1P levels ([8]; normalized against inorganic phosphates): continuous elevation
- EGR1 expression in whole cell lysates ([9]; 1 to 2 hours following EMAP II): significant upregulation
- upregulation of nuclear expression of EGR1 ([9]; EMAP II 2 μg/mL, at 2 hours): 9 fold
